In US20220064276A1 (SCHOLAR ROCK, published 2022) one finds Kd, koff and kon data, which are given here for 14 molecules.

Broadly, the Kd is the concentration at which binding is half-saturated. As usually defined, the koff is the first-order rate constant of dissociation. The term kon denotes the second-order rate constant of association. Higher therefore signals faster complex formation.

B1: SR-AB46-HuFab (Fab, V domains shown)
VH: QVQLVESGGGVVQPGRSLRLSCAASGFTFRSYVMHWVRQAPGKGLEWVAVISHEGSGKYYADSVKGRFTISRDNSKNTLYLQMNSLRAEDTAVYYCARPRIAARRGGFGSWGQGTLVTVSS
VL: NFMLTQPHSVSESPGKTVTISCTRSSGNIDYNYVQWYQQRPGSSPTTVIYEDNVRPSGVPDRFSGSIDSSSNSASLTISGLKTEDEADYYCQSYDSDNQRVVFGGGTKLTVL
notes: Human Fab; also called SR-AB46 Fab
B2: SR-AB51-HuFab (Fab, V domains shown)
VH: QVQLVESGGGVVQPGRSLRLSCAASGFTFRSYVMHWVRQAPGKGLEWVAVISHEGSGKYYADSVKGRFTISRDNSKNTLYLQMNSLRAEDTAVYYCARPRIAARRGGFGTWGQGTLVTVSS
VL: NFMLTQPHSVSESPGKTVTISCTRSSGNIDYNYVQWYQQRPGSSPTTVIYEDNVRPSGVPDRFSGSIDSSSNSASLTISGLKTEDEADYYCQSYDYDNQAVVFGGGTKLTVL
notes: Human Fab; also called SR-AB51 Fab
B3: SR-AB57-HuFab (Fab, V domains shown)
VH: QVQLVESGGGVVQPGRSLRLSCAASGFTFRSYVMHWVRQAPGKGLEWVAVISHEGSGKYYADSVKGRFTISRDNSKNTLYLQMNSLRAEDTAVYYCALPRIAARRGGFGSWGQGTLVTVSS
VL: NFMLTQPHSVSESPGKTVTISCTRSSGNIDYNYVQWYQQRPGSSPTTVIYEDNVRPSGVPDRFSGSIDSSSNSASLTISGLKTEDEADYYCQGYDWDTQGVVFGGGTKLTVL
notes: Human Fab; also called SR-AB57 Fab
B4: SR-AB54-HuFab (Fab, V domains shown)
VH: QVQLVESGGGVVQPGRSLRLSCAASGFTFRSYVMHWVRQAPGKGLEWVAVISHEGSGKYYADSVKGRFTISRDNSKNTLYLQMNSLRAEDTAVYYCALPRIAARRGGFGSWGQGTLVTVSS
VL: NFMLTQPHSVSESPGKTVTISCTRSSGNIDYNYVQWYQQRPGSSPTTVIYEDNVRPSGVPDRFSGSIDSSSNSASLTISGLKTEDEADYYCQSYDSDNQRVVFGGGTKLTVL
notes: Human Fab; also called SR-AB54 Fab
B5: SR-AB60-HuFab (Fab, V domains shown)
VH: QVQLVESGGGVVQPGRSLRLSCAASGFTFRSYVMHWVRQAPGKGLEWVAVISHEGSGKYYADSVKGRFTISRDNSKNTLYLQMNSLRAEDTAVYYCALPRIAARRGGFGTWGQGTLVTVSS
VL: NFMLTQPHSVSESPGKTVTISCTRSSGNIDYNYVQWYQQRPGSSPTTVIYEDNVRPSGVPDRFSGSIDSSSNSASLTISGLKTEDEADYYCQSYDYDTQGVVFGGGTKLTVL
notes: Human Fab; also called SR-AB60 Fab
B6: SR-AB50-HuFab (Fab, V domains shown)
VH: QVQLVESGGGVVQPGRSLRLSCAASGFTFRSYVMHWVRQAPGKGLEWVAVISHEGSGKYYADSVKGRFTISRDNSKNTLYLQMNSLRAEDTAVYYCARPRIAARRGGFGTWGQGTLVTVSS
VL: NFMLTQPHSVSESPGKTVTISCTRSSGNIDYNYVQWYQQRPGSSPTTVIYEDNVRPSGVPDRFSGSIDSSSNSASLTISGLKTEDEADYYCQSYDSDNQRVVFGGGTKLTVL
notes: Human Fab; also called SR-AB50 Fab
B7: SR-AB56-HuFab (Fab, V domains shown)
VH: QVQLVESGGGVVQPGRSLRLSCAASGFTFRSYVMHWVRQAPGKGLEWVAVISHEGSGKYYADSVKGRFTISRDNSKNTLYLQMNSLRAEDTAVYYCALPRIAARRGGFGSWGQGTLVTVSS
VL: NFMLTQPHSVSESPGKTVTISCTRSSGNIDYNYVQWYQQRPGSSPTTVIYEDNVRPSGVPDRFSGSIDSSSNSASLTISGLKTEDEADYYCQSYDYDTQGVVFGGGTKLTVL
notes: Human Fab; also called SR-Ab56 Fab
B8: SR-AB59-HuFab (Fab, V domains shown)
VH: QVQLVESGGGVVQPGRSLRLSCAASGFTFRSYVMHWVRQAPGKGLEWVAVISHEGSGKYYADSVKGRFTISRDNSKNTLYLQMNSLRAEDTAVYYCALPRIAARRGGFGTWGQGTLVTVSS
VL: NFMLTQPHSVSESPGKTVTISCTRSSGNIDYNYVQWYQQRPGSSPTTVIYEDNVRPSGVPDRFSGSIDSSSNSASLTISGLKTEDEADYYCQSYDYDNQAVVFGGGTKLTVL
notes: Human Fab; also called SR-AB59 Fab
B9: SR-AB52-HuFab (Fab, V domains shown)
VH: QVQLVESGGGVVQPGRSLRLSCAASGFTFRSYVMHWVRQAPGKGLEWVAVISHEGSGKYYADSVKGRFTISRDNSKNTLYLQMNSLRAEDTAVYYCARPRIAARRGGFGTWGQGTLVTVSS
VL: NFMLTQPHSVSESPGKTVTISCTRSSGNIDYNYVQWYQQRPGSSPTTVIYEDNVRPSGVPDRFSGSIDSSSNSASLTISGLKTEDEADYYCQSYDYDTQGVVFGGGTKLTVL
notes: Human Fab; also called SR-AB52 Fab
B10: SR-AB61-HuFab (Fab, V domains shown)
VH: QVQLVESGGGVVQPGRSLRLSCAASGFTFRSYVMHWVRQAPGKGLEWVAVISHEGSGKYYADSVKGRFTISRDNSKNTLYLQMNSLRAEDTAVYYCALPRIAARRGGFGTWGQGTLVTVSS
VL: NFMLTQPHSVSESPGKTVTISCTRSSGNIDYNYVQWYQQRPGSSPTTVIYEDNVRPSGVPDRFSGSIDSSSNSASLTISGLKTEDEADYYCQGYDWDTQGVVFGGGTKLTVL
notes: Human Fab; also called SR-AB61 Fab
B11: SR-AB58-HuFab (Fab, V domains shown)
VH: QVQLVESGGGVVQPGRSLRLSCAASGFTFRSYVMHWVRQAPGKGLEWVAVISHEGSGKYYADSVKGRFTISRDNSKNTLYLQMNSLRAEDTAVYYCALPRIAARRGGFGTWGQGTLVTVSS
VL: NFMLTQPHSVSESPGKTVTISCTRSSGNIDYNYVQWYQQRPGSSPTTVIYEDNVRPSGVPDRFSGSIDSSSNSASLTISGLKTEDEADYYCQSYDSDNQRVVFGGGTKLTVL
notes: Human Fab; also called SR-AB58 Fab
B12: SR-AB55-HuFab (Fab, V domains shown)
VH: QVQLVESGGGVVQPGRSLRLSCAASGFTFRSYVMHWVRQAPGKGLEWVAVISHEGSGKYYADSVKGRFTISRDNSKNTLYLQMNSLRAEDTAVYYCALPRIAARRGGFGSWGQGTLVTVSS
VL: NFMLTQPHSVSESPGKTVTISCTRSSGNIDYNYVQWYQQRPGSSPTTVIYEDNVRPSGVPDRFSGSIDSSSNSASLTISGLKTEDEADYYCQSYDYDNQAVVFGGGTKLTVL
notes: Human Fab; also called SR-AB55 Fab
B13: SR-AB48-HuFab (Fab, V domains shown)
VH: QVQLVESGGGVVQPGRSLRLSCAASGFTFRSYVMHWVRQAPGKGLEWVAVISHEGSGKYYADSVKGRFTISRDNSKNTLYLQMNSLRAEDTAVYYCARPRIAARRGGFGSWGQGTLVTVSS
VL: NFMLTQPHSVSESPGKTVTISCTRSSGNIDYNYVQWYQQRPGSSPTTVIYEDNVRPSGVPDRFSGSIDSSSNSASLTISGLKTEDEADYYCQSYDYDTQGVVFGGGTKLTVL
notes: Human Fab; also called SR-AB48 Fab
B14: SR-AB53-HuFab (Fab, V domains shown)
VH: QVQLVESGGGVVQPGRSLRLSCAASGFTFRSYVMHWVRQAPGKGLEWVAVISHEGSGKYYADSVKGRFTISRDNSKNTLYLQMNSLRAEDTAVYYCARPRIAARRGGFGTWGQGTLVTVSS
VL: NFMLTQPHSVSESPGKTVTISCTRSSGNIDYNYVQWYQQRPGSSPTTVIYEDNVRPSGVPDRFSGSIDSSSNSASLTISGLKTEDEADYYCQGYDWDTQGVVFGGGTKLTVL
notes: Human Fab; also called SR-AB53 Fab

The target in the assay is T1, human LTBP1-proTGFβ1 complex (human, UniProt Q14766 347-1721; P01137 30-390).
T1 construct: Large latent complex: one presenting molecule disulfide-linked to a proTGFβ1 dimer; also called Hu LTBP1-proTGFβ1; huLTBP1 proTGFβ1
T1 sequence (Q14766 347-1721 limits assumed, chain 1 of 2): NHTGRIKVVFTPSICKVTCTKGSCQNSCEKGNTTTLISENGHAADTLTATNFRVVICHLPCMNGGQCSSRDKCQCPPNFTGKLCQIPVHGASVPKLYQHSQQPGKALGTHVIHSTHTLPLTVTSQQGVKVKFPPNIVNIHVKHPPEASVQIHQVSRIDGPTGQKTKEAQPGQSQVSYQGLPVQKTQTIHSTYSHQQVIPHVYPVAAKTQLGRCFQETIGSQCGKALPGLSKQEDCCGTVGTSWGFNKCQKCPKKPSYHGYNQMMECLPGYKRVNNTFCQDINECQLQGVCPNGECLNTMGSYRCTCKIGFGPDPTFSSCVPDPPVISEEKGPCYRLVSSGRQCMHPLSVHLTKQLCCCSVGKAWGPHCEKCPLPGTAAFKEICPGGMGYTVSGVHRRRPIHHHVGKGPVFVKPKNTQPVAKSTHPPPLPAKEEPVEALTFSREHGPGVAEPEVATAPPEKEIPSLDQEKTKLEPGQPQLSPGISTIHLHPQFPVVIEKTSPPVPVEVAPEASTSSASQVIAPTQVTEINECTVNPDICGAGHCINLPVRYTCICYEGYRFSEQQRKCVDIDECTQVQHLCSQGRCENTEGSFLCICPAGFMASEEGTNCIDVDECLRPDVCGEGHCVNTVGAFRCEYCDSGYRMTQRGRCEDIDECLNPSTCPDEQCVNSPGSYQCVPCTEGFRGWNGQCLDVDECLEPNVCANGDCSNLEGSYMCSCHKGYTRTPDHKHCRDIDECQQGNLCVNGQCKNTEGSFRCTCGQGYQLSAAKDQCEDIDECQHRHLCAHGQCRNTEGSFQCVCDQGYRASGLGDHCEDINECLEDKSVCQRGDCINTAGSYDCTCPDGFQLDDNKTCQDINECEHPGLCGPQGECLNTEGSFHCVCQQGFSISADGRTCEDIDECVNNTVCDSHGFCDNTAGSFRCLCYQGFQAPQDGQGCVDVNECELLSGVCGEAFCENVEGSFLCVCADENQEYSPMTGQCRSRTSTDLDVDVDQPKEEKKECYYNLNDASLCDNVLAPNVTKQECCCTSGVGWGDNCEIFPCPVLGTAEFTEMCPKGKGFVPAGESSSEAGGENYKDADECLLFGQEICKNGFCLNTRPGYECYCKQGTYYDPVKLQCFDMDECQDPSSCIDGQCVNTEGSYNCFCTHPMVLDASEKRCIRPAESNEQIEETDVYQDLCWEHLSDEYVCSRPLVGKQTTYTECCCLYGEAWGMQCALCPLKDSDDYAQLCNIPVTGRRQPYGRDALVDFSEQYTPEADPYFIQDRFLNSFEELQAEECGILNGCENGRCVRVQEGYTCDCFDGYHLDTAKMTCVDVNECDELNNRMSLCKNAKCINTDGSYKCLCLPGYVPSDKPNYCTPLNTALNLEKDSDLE
T1 sequence (P01137 30-390 limits assumed, chain 2 of 2): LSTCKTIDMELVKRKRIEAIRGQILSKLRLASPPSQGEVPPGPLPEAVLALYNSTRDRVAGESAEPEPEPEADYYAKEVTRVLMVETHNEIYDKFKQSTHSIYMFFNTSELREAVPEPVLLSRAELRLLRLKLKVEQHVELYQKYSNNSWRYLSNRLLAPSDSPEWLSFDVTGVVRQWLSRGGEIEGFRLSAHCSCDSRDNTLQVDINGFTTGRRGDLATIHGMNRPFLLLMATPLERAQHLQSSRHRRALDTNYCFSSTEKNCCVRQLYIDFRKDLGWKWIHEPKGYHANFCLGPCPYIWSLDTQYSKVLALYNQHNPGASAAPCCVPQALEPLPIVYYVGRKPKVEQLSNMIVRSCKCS
As to the kind of experiment: SPR Biacore 8K, Fab over captured antigen. Here is the method:
A Biacore 8K system was employed to determine the monovalent binding affinity and the kinetic parameters for antigen binding of test antibodies. Association and dissociation kinetics of Fab fragments SR-AB42-HuFab, SR-AB63-HuFab and SR-AB43-HuFab to antigen complexes were measured, and resulting ka, kd and KD are provided below. Briefly, the binding kinetics were evaluated by surface plasmon resonance using Biacore 8K (GE Healthcare). Biotinylated capture antigens were immobilized to the chip (10 nM, ˜200 RU loading). A Biotin CAPture sensor chip was used to capture the biotinylated antigens. […] 0 nM was used as a reference. […] 0 nM was used as a reference. Multi-cycle kinetics was employed where each analyte concentration was injected in a separate cycle and the sensor chip surface was regenerated after each cycle. A11 the assays were carried out in freshly prepared 1× HBS-EP+ buffer (10 mM HEPES, 150 mM NaCl, 3 mM EDTA, 0.05% Tween20, pH 7.4). Data were fit globally to a 1:1 binding model to obtain the kinetic parameters. The sensorgram for 0 nM analyte concentration was used as reference.
A general note: SPR reads the build-up and loss of mass on a sensor chip optically.
Molecule B1 displayed a Kd of 0.0444 nM, a koff of 0.00011 s⁻¹ and a kon of 2.47e+06 M⁻¹ s⁻¹.

For the molecule B2, the Kd was 0.0589 nM, the koff was determined as 0.00015 s⁻¹ and the kon came to 2.55e+06 M⁻¹ s⁻¹.

For B3, the Kd turned out to be 0.133 nM, the off-rate constant (koff) came out at 0.000181 s⁻¹ and the kon is 1.35e+06 M⁻¹ s⁻¹.

B4 returned a Kd of 0.0491 nM, a koff of 8.83e-05 s⁻¹ and a kon of 1.8e+06 M⁻¹ s⁻¹.

As for B5, the equilibrium dissociation constant (Kd) was 0.051 nM, the koff turned out to be 0.00012 s⁻¹ and the kon came to 2.35e+06 M⁻¹ s⁻¹.

In the case of B6, binding was put at a Kd of 0.055 nM, the koff amounted to 0.000182 s⁻¹ and the kon was 3.31e+06 M⁻¹ s⁻¹.

Turning to B7, the affinity, expressed as Kd, was 0.0489 nM; the koff worked out at 0.000126 s⁻¹; the kon was determined as 2.58e+06 M⁻¹ s⁻¹.

For the molecule B8, the affinity, expressed as Kd, was 0.0509 nM; the off-rate constant (koff) was found to be 0.00013 s⁻¹; the kon amounted to 2.55e+06 M⁻¹ s⁻¹.

Turning to B9, the Kd was 0.0396 nM, the koff is 9.91e-05 s⁻¹ and the kon came to 2.5e+06 M⁻¹ s⁻¹.

B10 returned a Kd of 0.132 nM, a koff of 0.000155 s⁻¹ and a kon of 1.17e+06 M⁻¹ s⁻¹.

As to B11, the affinity, expressed as Kd, was 0.0521 nM; the koff came out at 0.000162 s⁻¹; the kon is 3.11e+06 M⁻¹ s⁻¹.

In turn, B12 had a Kd of 0.131 nM, a koff of 0.000113 s⁻¹ and a kon of 862000 M⁻¹ s⁻¹.

On to B13, for which the Kd is 0.0593 nM, the koff came out at 0.000104 s⁻¹ and the on-rate constant (kon) was 1.76e+06 M⁻¹ s⁻¹.

Take B14: the Kd was 0.0707 nM, the koff came out at 0.000128 s⁻¹ and the kon was determined as 1.82e+06 M⁻¹ s⁻¹.
